Assay results from publication PMC10397247.
Each block holds one binder with its values, some of them ahead of it.

Tests used:
O13-bH = biological target: T1, O13-bH; assay: two-hybrid library CCNG1;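 also: natural log of median RNA to DNA barcode read ratio; higher means stronger binding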
T1 chain: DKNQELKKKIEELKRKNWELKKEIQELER

O5-bH = biological target: T2, O5-bH; assay: two-hybrid library CCNG1;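 also: natural log of median RNA to DNA barcode read ratio; higher means stronger binding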
T2 chain: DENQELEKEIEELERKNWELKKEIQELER

O8-bH = biological target: T3, O8-bH; assay: two-hybrid library CCNG1;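 also: natural log of median RNA to DNA barcode read ratio; higher means stronger binding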
T3 chain: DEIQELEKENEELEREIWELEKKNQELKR

O6-bH = biological target: T4, O6-bH; assay: two-hybrid library CCNG1;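 also: natural log of median RNA to DNA barcode read ratio; higher means stronger binding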
T4 chain: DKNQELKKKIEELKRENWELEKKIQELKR

O15-bH = biological target: T5, O15-bH; assay: two-hybrid library CCNG1;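 also: natural log of median RNA to DNA barcode read ratio; higher means stronger binding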
T5 chain: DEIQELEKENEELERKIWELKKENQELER

O16-bH = biological target: T6, O16-bH; assay: two-hybrid library CCNG1;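 also: natural log of median RNA to DNA barcode read ratio; higher means stronger binding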
T6 chain: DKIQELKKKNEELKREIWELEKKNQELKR

O2-bH = biological target: T7, O2-bH; assay: two-hybrid library CCNG1
T7 chain: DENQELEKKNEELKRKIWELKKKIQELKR

O9-bH = biological target: T8, O9-bH; assay: two-hybrid library CCNG1
T8 chain: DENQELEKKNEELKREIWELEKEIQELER

O7-bH = biological target: T9, O7-bH; assay: two-hybrid library CCNG1
T9 chain: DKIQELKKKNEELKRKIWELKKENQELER

O14-bH = biological target: T10, O14-bH; assay: two-hybrid library CCNG1
T10 chain: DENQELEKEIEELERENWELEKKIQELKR

O12-bH = biological target: T11, O12-bH; assay: two-hybrid library CCNG1
T11 chain: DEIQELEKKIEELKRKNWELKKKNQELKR

O11-bH = biological target: T12, O11-bH; assay: two-hybrid library CCNG1
T12 chain: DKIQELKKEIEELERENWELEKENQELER

O3-bH = biological target: T13, O3-bH; assay: two-hybrid library CCNG1
T13 chain: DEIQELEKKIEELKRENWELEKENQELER

O4-bH = biological target: T14, O4-bH; assay: two-hybrid library CCNG1
T14 chain: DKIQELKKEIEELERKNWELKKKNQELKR

4H953-AA = biological target: T15, 4H953-AA; assay: two-hybrid library CCmax; conditions: mean of both orientations
T15 chain: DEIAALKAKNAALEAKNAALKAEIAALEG

4H568-AA = biological target: T16, 4H568-AA; assay: two-hybrid library CCmax; conditions: mean of both orientations
T16 chain: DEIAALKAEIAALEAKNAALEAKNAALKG

4H797-AA = biological target: T17, 4H797-AA; assay: two-hybrid library CCmax; conditions: mean of both orientations
T17 chain: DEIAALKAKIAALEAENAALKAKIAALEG

4H687-AA = biological target: T18, 4H687-AA; assay: two-hybrid library CCmax; conditions: mean of both orientations
T18 chain: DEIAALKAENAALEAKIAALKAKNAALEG

4H717-AA = biological target: T19, 4H717-AA; assay: two-hybrid library CCmax; conditions: mean of both orientations
T19 chain: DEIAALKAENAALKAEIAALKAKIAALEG

4H4001-AA = biological target: T20, 4H4001-AA; assay: two-hybrid library CCmax; conditions: mean of both orientations
T20 chain: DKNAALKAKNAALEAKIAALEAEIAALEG

4H3427-AA = biological target: T21, 4H3427-AA; assay: two-hybrid library CCmax; conditions: mean of both orientations
T21 chain: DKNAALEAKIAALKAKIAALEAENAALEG

4H918-AA = biological target: T22, 4H918-AA; assay: two-hybrid library CCmax; conditions: mean of both orientations
T22 chain: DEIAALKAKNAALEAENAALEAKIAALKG

4H883-AA = biological target: T23, 4H883-AA; assay: two-hybrid library CCmax; conditions: mean of both orientations
T23 chain: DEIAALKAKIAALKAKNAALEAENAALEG

4H967-AA = biological target: T24, 4H967-AA; assay: two-hybrid library CCmax; conditions: mean of both orientations
T24 chain: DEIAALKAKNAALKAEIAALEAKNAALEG

4H3354-AA = biological target: T25, 4H3354-AA; assay: two-hybrid library CCmax; conditions: mean of both orientations
T25 chain: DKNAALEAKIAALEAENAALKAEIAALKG

4H3855-AA = biological target: T26, 4H3855-AA; assay: two-hybrid library CCmax; conditions: mean of both orientations
T26 chain: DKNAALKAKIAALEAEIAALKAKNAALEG

4H2442-AA = biological target: T27, 4H2442-AA; assay: two-hybrid library CCmax
T27 chain: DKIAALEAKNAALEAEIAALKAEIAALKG

4H3112-AA = biological target: T28, 4H3112-AA; assay: two-hybrid library CCmax; conditions: mean of both orientations
T28 chain: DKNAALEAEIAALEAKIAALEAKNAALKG

4H3782-AA = biological target: T29, 4H3782-AA; assay: two-hybrid library CCmax; conditions: mean of both orientations
T29 chain: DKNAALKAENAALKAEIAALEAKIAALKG

4H1930-AA = biological target: T30, 4H1930-AA; assay: two-hybrid library CCmax; conditions: mean of both orientations
T30 chain: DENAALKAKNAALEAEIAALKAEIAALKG

4H3015-AA = biological target: T31, 4H3015-AA; assay: two-hybrid library CCmax; conditions: mean of both orientations
T31 chain: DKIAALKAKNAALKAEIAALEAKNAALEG

4H406-AA = biological target: T32, 4H406-AA; assay: two-hybrid library CCmax; conditions: mean of both orientations
T32 chain: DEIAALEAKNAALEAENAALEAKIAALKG

4H2343-AA = biological target: T33, 4H2343-AA; assay: two-hybrid library CCmax; conditions: mean of both orientations
T33 chain: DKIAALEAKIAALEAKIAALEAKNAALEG

4H2931-AA = biological target: T34, 4H2931-AA; assay: two-hybrid library CCmax; conditions: mean of both orientations
T34 chain: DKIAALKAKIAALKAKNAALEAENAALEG

4H452-AA = biological target: T35, 4H452-AA; assay: two-hybrid library CCmax; conditions: mean of both orientations
T35 chain: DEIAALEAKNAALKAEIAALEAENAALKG

4H347-AA = biological target: T36, 4H347-AA; assay: two-hybrid library CCmax
T36 chain: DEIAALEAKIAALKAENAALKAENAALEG

4H3001-AA = biological target: T37, 4H3001-AA; assay: two-hybrid library CCmax; conditions: mean of both orientations
T37 chain: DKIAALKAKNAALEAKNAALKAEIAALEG

4H_GCN4 = assay: two-hybrid library CCmax
Chain of 4H_GCN4 (chain, as listed by the source): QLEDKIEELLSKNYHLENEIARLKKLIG

4H175-AA = biological target: T38, 4H175-AA; assay: two-hybrid library CCmax
T38 chain: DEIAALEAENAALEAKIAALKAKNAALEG

4H2466-AA = biological target: T39, 4H2466-AA; assay: two-hybrid library CCmax; conditions: mean of both orientations
T39 chain: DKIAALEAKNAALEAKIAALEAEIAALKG

4H2774-AA = biological target: T40, 4H2774-AA; assay: two-hybrid library CCmax; conditions: mean of both orientations
T40 chain: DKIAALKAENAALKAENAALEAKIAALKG

4H2592-AA = biological target: T41, 4H2592-AA; assay: two-hybrid library CCmax; conditions: mean of both orientations
T41 chain: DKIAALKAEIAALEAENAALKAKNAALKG

4H2330-AA = biological target: T42, 4H2330-AA; assay: two-hybrid library CCmax; conditions: mean of both orientations
T42 chain: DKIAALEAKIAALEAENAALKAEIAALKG

4H2253-AA = biological target: T43, 4H2253-AA; assay: two-hybrid library CCmax; conditions: mean of both orientations
T43 chain: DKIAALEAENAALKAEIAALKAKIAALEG

4H56-AA = biological target: T44, 4H56-AA; assay: two-hybrid library CCmax; conditions: mean of both orientations
T44 chain: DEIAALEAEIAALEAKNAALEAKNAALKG

4H2124-AA = biological target: T45, 4H2124-AA; assay: two-hybrid library CCmax; conditions: mean of both orientations
T45 chain: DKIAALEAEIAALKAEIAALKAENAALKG

4H1828-AA = biological target: T46, 4H1828-AA; assay: two-hybrid library CCmax; conditions: mean of both orientations
T46 chain: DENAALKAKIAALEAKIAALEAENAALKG

4H249-AA = biological target: T47, 4H249-AA; assay: two-hybrid library CCmax; conditions: mean of both orientations
T47 chain: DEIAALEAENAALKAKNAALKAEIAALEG

4H3073-AA = biological target: T48, 4H3073-AA; assay: two-hybrid library CCmax
T48 chain: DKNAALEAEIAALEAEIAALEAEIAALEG

4H1821-AA = biological target: T49, 4H1821-AA; assay: two-hybrid library CCmax; conditions: mean of both orientations
T49 chain: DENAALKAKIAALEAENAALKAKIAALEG

GCN2_T = assay: two-hybrid library CCmax
4H3438-AA = biological target: T50, 4H3438-AA; assay: two-hybrid library CCmax; conditions: mean of both orientations
T50 chain: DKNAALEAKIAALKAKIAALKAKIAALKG

4H2165-AA = biological target: T51, 4H2165-AA; assay: two-hybrid library CCmax; conditions: mean of both orientations
T51 chain: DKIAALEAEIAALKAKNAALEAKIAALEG

4H1765-AA = biological target: T52, 4H1765-AA; assay: two-hybrid library CCmax; conditions: mean of both orientations
T52 chain: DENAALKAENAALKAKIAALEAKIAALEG

4H2732-AA = biological target: T53, 4H2732-AA; assay: two-hybrid library CCmax; conditions: mean of both orientations
T53 chain: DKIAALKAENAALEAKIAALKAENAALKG

4H_BCR = biological target: T54, 4H_BCR; assay: two-hybrid library CCmax; conditions: mean of both orientations
T54 chain: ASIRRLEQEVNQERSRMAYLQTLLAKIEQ

4H_APH = biological target: T55, 4H_APH; assay: two-hybrid library CCmax
T55 chain: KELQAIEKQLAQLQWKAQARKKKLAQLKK

interaction score (O13-bH): -0.515
interaction score (O5-bH): -3.76
interaction score (O8-bH): -0.273
interaction score (O6-bH): -0.451
interaction score (O15-bH): -0.515
interaction score (O16-bH): -0.352
interaction score (O2-bH): -1.24
interaction score (O9-bH): -1.15
interaction score (O7-bH): 0.102
interaction score (O14-bH): -0.342
interaction score (O12-bH): 1.01
interaction score (O11-bH): -0.129
interaction score (O3-bH): 0.233
interaction score (O4-bH): 1.29
B1: O11-bH (peptide)
chain: DKIQELKKEIEELERENWELEKENQELER

interaction score (4H953-AA): -1.67
interaction score (4H568-AA): -1.38
interaction score (4H797-AA): -1.52
interaction score (4H687-AA): -1.85
interaction score (4H717-AA): -1.4
interaction score (4H4001-AA): -2.06
interaction score (4H3427-AA): -1.52
interaction score (4H918-AA): -1.29
interaction score (4H883-AA): -1.82
interaction score (4H967-AA): -2.2
interaction score (4H3354-AA): -1.37
interaction score (4H3855-AA): -1.56
interaction score (4H2442-AA): 1.97
interaction score (4H3112-AA): -1.4
interaction score (4H3782-AA): -1.14
B2: 4H2442-AA (peptide)
chain: DKIAALEAKNAALEAEIAALKAEIAALKG

interaction score (4H1930-AA): -1.75
interaction score (4H3015-AA): 2.21
interaction score (4H406-AA): -1.39
interaction score (4H2343-AA): -1.82
interaction score (4H2931-AA): -1.11
interaction score (4H452-AA): 0.385
interaction score (4H347-AA): -1.44
interaction score (4H3001-AA): -0.307
interaction score (4H_GCN4): -1
interaction score (4H175-AA): -0.721
interaction score (4H2466-AA): -1.58
interaction score (4H2774-AA): -0.332
interaction score (4H2592-AA): -1.32
interaction score (4H2330-AA): -1.68
interaction score (4H2253-AA): -0.981
interaction score (4H56-AA): -1.56
interaction score (4H2124-AA): -1.39
interaction score (4H1828-AA): -1.69
interaction score (4H249-AA): 0.000294
interaction score (4H3073-AA): -2.69
interaction score (4H1821-AA): -1.36
interaction score (GCN2_T): -0.991
interaction score (4H3438-AA): -0.317
interaction score (4H2165-AA): -1.43
interaction score (4H1765-AA): -1.18
interaction score (4H2732-AA): -0.776
interaction score (4H_BCR): -2.06
interaction score (4H_APH): -0.714
B3: 4H175-AA (peptide)
chain: DEIAALEAENAALEAKIAALKAKNAALEG
